Test results taken from patent publication US20160075755A1.

Target: TGFβ1 (UniProt P01137)
Test: cell-based or functional assay

DNRII (truncated, dominant-negative TGFβ receptor II), sequence (P37173 23-199): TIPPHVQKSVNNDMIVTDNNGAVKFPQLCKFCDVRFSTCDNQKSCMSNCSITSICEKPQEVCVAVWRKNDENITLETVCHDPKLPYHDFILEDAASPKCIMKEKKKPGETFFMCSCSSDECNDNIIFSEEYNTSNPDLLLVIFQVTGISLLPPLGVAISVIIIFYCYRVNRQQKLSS
TGFβ1, sequence (P01137 279-390 limits assumed): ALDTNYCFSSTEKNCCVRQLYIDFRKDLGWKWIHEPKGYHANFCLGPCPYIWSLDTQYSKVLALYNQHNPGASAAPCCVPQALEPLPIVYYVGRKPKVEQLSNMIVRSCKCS

Row | Substance | T cell expansion after 30 days in culture in the presence of TGFβ1 | Total Flux of firefly-luciferase-Du145 cells (express PSCA, produce TGFβ1) after 6 days of co-culture | fold expansion of 2G.CAR-PSCA(DNRII) T cells at 2 weeks of culture in the presence of TGFβ1 | T cell expansion for >60 days in the presence of TGFβ1 | fold expansion of 2G.CAR-PSCA(RIID4) T cells at 2 weeks of culture in the presence of TGFβ1 | transgenic T cell proliferation with TGFβ1 alone (no antigen)
1 | DNRII (truncated, dominant-negative TGFβ receptor II) (from UniProt P37173 23-199) | 0.72 fold | 1e+10 p/s | 7.4 fold | – | – | –
2 | RIID4 (chimeric cytokine receptor: exodomain of TGFβRII linked to the endodomain of toll-like receptor (TLR) 4) (from UniProt P37173 23-166; O00206 632-839) | – | 9e+09 p/s | – | 300000 fold | 21 fold | 0.04 fold
